The values that follow come from publication PMC2851570, “Distinct Roles of Hand2 in Initiating Polarity and Posterior Shh Expression during the Onset of Mouse Limb Bud Development” (PLoS Genetics, 2010).

In test [1] the target is Hoxd13 (expressed in transfected cells) (UniProt P70217).
For test [2], the target named is Hoxd13 (expressed in transfected cells) (UniProt P70217 1-339). The experiment in a line: cell-based or functional assay.
Hoxd13 (expressed in transfected cells) (UniProt P70217 1-339), sequence (P70217 whole entry): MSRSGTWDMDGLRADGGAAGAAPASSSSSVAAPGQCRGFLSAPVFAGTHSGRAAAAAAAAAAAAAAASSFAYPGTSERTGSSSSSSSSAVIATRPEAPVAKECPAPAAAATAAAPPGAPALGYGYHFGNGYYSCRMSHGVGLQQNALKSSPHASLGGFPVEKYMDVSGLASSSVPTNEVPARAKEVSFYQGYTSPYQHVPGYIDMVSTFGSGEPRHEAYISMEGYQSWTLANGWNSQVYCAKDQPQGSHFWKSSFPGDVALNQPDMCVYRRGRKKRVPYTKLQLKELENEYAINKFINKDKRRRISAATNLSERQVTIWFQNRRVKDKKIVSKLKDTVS

Hoxd13 (expressed in transfected cells) (UniProt P70217), sequence (P70217 whole entry): as above

For the molecule “Gli3 repressor isoform (Gli3R), Myc-epitope tagged (domain or fragment)”, the repression by co-expressed Gli3R of Hand2-Hoxd13 mediated transactivation of the ZRS-Luc reporter in NIH3T3 cells in test [1] was 50%.

B1: Hand2, Flag-epitope tagged (natural protein, UniProt Q61039 1-217, looked up)
chain: MSLVGGFPHHPVVHHEGYPFAAAAAAAAAAAASRCSHEENPYFHGWLIGHPEMSPPDYSMALSYSPEYASGAAGLDHSHYGGVPPGAGPPGLGGPRPVKRRGTANRKERRRTQSINSAFAELRECIPNVPADTKLSKIKTLRLATSYIAYLMDLLAKDDQNGEAEAFKAEIKKTDVKEEKRKKELNEILKSTVSSNDKKTKGRTGWPQHVWALELKQ
As for B1, in test [2], the “luciferase activity of the ZRS-Luc reporter in NIH3T3 cells on co-transfection of Hand2 and Hoxd13 (basal activity set to 1; Hand2 alone ∼3-fold, Hoxd13 alone ∼6.5-fold)” value was around 10.5 fold.
